Consider 17 sequences from the DeepSol protein solubility set.

A short description of the data set: soluble on expression in E. coli; label from the status in PepcDB or PDB records.
Consider “MGSDKIHHHHHHMRRQANSPSPDPVSTTRPVAWRPTLAKQKGETKHSALTERIIADIDAGVLKPMDRMPTHRDLARELGLSVQTVSLSYKEAERLGYLSGEIGRGTFVKTRVTERAGRMMLDHSPTEVLDLSIIRGVYLDDHENASRTILREMADSDNSGFMRPCRPVAGLDSHRETARTWLGMMGVTAGAERILVTNGAAHGIFLALSCIIRSNDVVLCENLTDHGIIGLSNILGFSLKGLPTDEEGILPDALEAACAAGGVRALVLIPTLNNPTGHVSGAARRQAIATIAERYGIFIIEDEVYRPMIEDDLPSITEMLPDLGFFVTSFTKTVLTGLRVGYLVVPPAYSIRAASILRVSSWSGTYLTAEIATRWVENGTARRLLDVQRTEARARQKIAVDILGDHIGSTHPLSFCAWLTVPPRWTEDGLVRALTNQNVAVTPSEPFIAGPGHGGGIRICLGGRLNHASLARALTTVRQTFEQLPPVYDIGSIG”, for which the “soluble on expression in E. coli” value was “not soluble”.
Regarding “MGSDKIHHHHHHMRRRHVGVGAELTAFRILAAISCERLFWETGSRNQAVKTRAESANREISMIRTAMIAATALAASLAASAPAFAADVVGLWATPGNGGQVEISRCGNSLCGKLVTSDHIKTNPGLKDIKNKDESQRSRTLKNLQMLYDFSGGPTKWTGGKVYNPEDGGVYAGTIELVSTTELKLKGCVVAPLCKTQKWTRIR”, the “soluble on expression in E. coli” value was “not soluble”.
Regarding “MGSDKIHHHHHHMRRRVPLNSVRAFEAAARRMSLVQASDELCVTPTAVSHQIRQLEDFLQTKLFLRRSSRLELTPESRACLAKLTEALDIIDDAIAALHKPMDMPERLVVGASASVGSLWLMPRLRNFYRTAPEIDISLTTFIERSAIETDTSDVWICNWHTNLDRRVELLLEEDIIPVCSPQMAEEFGELSFDSLRELPLVHVDRAKASINGQYPDWDRYLREYGISRNDIAKGPRFNQAGPAIEAAKAGMGALLGRSILIERALETGELIRLGDPYPIRNPYYLISPLQPASNAVKMFKDWIFAQAKTRTSTYVELPHKNRRGSDFRLTV”, the “soluble on expression in E. coli” value is given as “not soluble”.
The value for “MGSDKIHHHHHHMRTEFIPPSVTRAAFRLPTLSRLPPLTALRAFVVAARHASFSRAAEELHVSTAAIGQQVRILETHLGQPLFSRQRGELVLTDAGSTLYPGLADAFETMIGSLSDLMASGSRRQVKVLAEGCFAARWLAPRLGRIVPALGDVDIWIESLEGDAIDLTQFDADCAIVATHGQIPGFIHEPLFADTVSAVCTPDFAARHQLCGEPERLRDISFAMLRGNGGDAAFEWANWLRACRIPLRLSATGPRFSRQTALIEAILSGHGIGLARHSLISDELKSGRLIAAFGTPQPTASRYHLLTSPDRRRLPEIASLLALLREDIRSLEAAA” was “not soluble”; that for “MGSDKIHHHHHHMRTVQAISGLVTSRFFGTSTRIMASGKTLNTSNINPNVIKMEYAVRGPIVIRAVELEKELATGAQKPFPNVIKANIGDAHAMGQKPITFIRQLLACIVNPEIMKTDKSIPSDVIEHANAFLGSCGGKSAGAYSQSTGVEIVRKHVAEYIKRRDGGIPCNSEDVCLSGGASESIRNVLKLFINHNNAKKVGVMIPIPQYPLYSATIEEFGLGQVGYYLSESSNWSMDEAELERSFNDHCKEYDIRVLCIINPGNPTGQALSRENIETIIKFAQKKNLFLMADEVYQDNVYAQGSQFHSFKKVLVEMGEPYNKMELASFHSVSKGYMGECGMRGGYVEFLNLDPEVYVLFKKMISAKLCSTVLGQAVIDAVVNPPKEGDASYALWKQEKDAVLASLKERATLVEKAYSSIDGISCNPVQGAMYAFPQITIPQRAVEKAQSLNQQPDFFYAMQLLETTGICIVPGSGFGQKDGTYHFRTTILPQPELFKDMLSRFTDFHQKFLAEYKRLYCHFHLTNNRTSDSFWHTLIDGFPKYKVFVQNRRSTQCAFHSIQLSRF” was “not soluble”; that for “MGSDKIHHHHHHMRVALLMGGVSREREISLRSGERVKKALEKLGYEHTVFDVREDFLKKVDQLKSFDVVFNVLHGTFGEDVTLQAILDFLGIRYTGSDAFSSMICFDKLVTYRFLKGTVEIPDFVEIKEFMKTSPLGYPCVVKPRREGSSIGVFVCESDEEFQHALKEDLPRYGSVIVQKYIPGREMTVSILETEKGFEILPVLELRPKRRFYDYVAKYTKGETEFILPAPLNPSEERLVKEMALKAFVEAGCRGFGRVDGIFSDGRFYFLEINTVPGLTETSDLPASAKAGGIEFEELVEIILKSAFLKEGVRV” was “not soluble”.
For “MGSDKIHHHHHHMRWFHKKGELARDGWQSVVDATTPGWEYTGIRIAELGSGESLELNDTGVERIFIPLQGSFDVAHHGQVTHLHGRKSVFDGPTDVLYLPTGQTATLSGQGRVAVAEAPTQEPKEWKYIAPAETPVELRGAGRSSRQVHNFGTPEALDAARLIVCEVITPGENWSSYPPHKHDEHIPGHESKLEEIYYFESAPSRVGGRAEAAEGAFGMFSTYSSPAGEIDINAMVYSGDIALVPFGYHGPAVAAPGYDLYYLNVMAGPDPERIWLINDDPAHAWVRDTWTGQAFDDRLPYENANKEG” the value was “not soluble”.
For “MGSDKIHHHHHHMRYESSKKILVIEDDAVTRNLFLEVLEAQGFDTIGAEDGVAGIQKAQEHLPDLVICDIQMPDMDGYTVLARLRQDPHTAIIPFIFLTGSNTQTDVRKGMESGADDYLTKPSSIEDFLRAIAVRLEKQAFLRYWYATNSHQTAQSPPSSFNSESIFPSVPQLQAVFDFIEANYRQGITLSDVALAVGYSPAYLTNRVAKQTGETVNAWIVKRRMAAARPLLRDTNQTIDQIAIALGYQNTCHFSRQFRQHHGLSPKTWRKQQQLLQSSKNAKLQLIKNHDALEKLVPLGC”, the “soluble on expression in E. coli” value is given as “not soluble”.
For “MGSDKIHHHHHHMSAAVERSPEEKRVIPVALSSASVYPLSVHDAFAVAQDLGFDGVEVMVTNNATSQSPHSLLELSHRYRQPIVSIHAPTLLLTQKVWGSAWNKIEMSCRMAREVGCGTVVVHPPFRWQNNYAENFPAGIRQLADMYQVRIAVENMYPWRVRGRETVAYLPHWDPLGQDYDDVTWDFSHAATAGANSVEAIKALGGKLRHIHLTDGSGSGRDEHLIPGRGNQGCAEALQHLAGSGFDGVVVAEISTRRAKFAGERELWLNETLKFARQHLSHPLVGAREA” the value was “not soluble”.
For “MGSDKIHHHHHHMSADTLFPKLDIPATIAAGPGPGNTDARVLAAFSGAGLADHMHGDVLRGMVECKLMLRRIWGTDNIHTFGVAGTGWSGLDVMFSAVMPGDKVVVFTNGTFSGIDGLTVRMKAATAEELAANPLDPRPASVVIVDIPHGQSVTGEIVETALAEHKPKWAAMAHWETGSGRINDIAGFSAACERHDVMGLVDAVSSLGVEDFRIDDFPGVHGWASCPQKGICCLPLTYAPVSFTDRYIQTLRATGTRSFVHHPILEARHWGVIEGKDVDKGTYHRTHSAYAVAAFHEALRITLQQGVANRAKDYAYHEAALRRAVEALGCEVTSNMTSLVVLNLPGDLRGREMELVQNCRARNFGIWPTLSAPVQVRIGILNLLSRAAVTDIVTRFAEAIRELGGAGDEATALAALDAHYDNAIAAE” the value was “not soluble”; for “MGSDKIHHHHHHMSALLEVKGLNVSFRQDGRISQAVRGVSFTVNRGETVALVGESGSGKSVSALSTVSLLGDSAIVEGSVTYDGQEMIGASEQRLMDVRGNDISFIFQEPMTSLNPLHTIRKQMAESLALHQGLVGAAALERILELLVKVGIRDPETRLDAYPHQLSGGQRQRVMIAMALANKPDILIADEPTTALDVTIQAQILELLADLQREENMGMLFITHDLGIVRRIADRVCVMKAGEIVESGSTEEIFANPRHPYTRKLLAAEPKGRPDPVPAGAEEVARTDHLRVWFPIQRGFLRRTVGHVKAVNDASISVRAGETLGIVGESGSGKTTLALAIMRLIGSEGGITFRGEDVRSWSTRELRRLRKDMQIVFQDPFGSLSPRMTCAQIISEGLAIHKVDPHRAPRELVAEVMQEVGLDPATMDRYPHEFSGGQRQRIAIARAMVLRPRLLVLDEPTSALDMTVQVQIVALLRDLQRKYGLAYLFISHDLKVVRAMSHKVIVMRQGDVIEMGETEALFTNAQTDYTRSLIAAAG”, “not soluble”.
For the sequence “MGSDKIHHHHHHMSAMLTVEGLGKSYRVWGSEWLRAASWFGLKVKPREEHWVLRNVGFSVTAGESIGIMGRNGAGKSTLLKLITGTSQPTEGRIVRRGRIAAILELGMGFNPDLSGRENARHSAGLMGYTLDQIEAVLPEIQEFAEIGDYFDEPVRTYSSGMQVRVAFAVATAFRPDVLIVDEALSVGDVYFQAKCFKRILSFKEKGMTLILVSHSVGDVVKHCDRAILIKDGGVYADGPSREVSNLYLDELFGKKPASLQAEAKDTPKDLRAGTEDLFHTRPYYNAGEHRWGQGGARILDYVVVSDGQEFPARVESGSRTAFYVKIAFDQDFDSVVPGILVKTLEGLFLYGTNSFLSSEGRTGIAAKAGDVIVCKFTMPLDLNEANYLISLGISSGDPLVELTPLDRRYDAIVLNVARGMQFWGMMDLKADFEIVEALS”, the “soluble on expression in E. coli” value is listed as “not soluble”.
The value for “MGSDKIHHHHHHMSAPLDIDQLQTFVAIADTGSFTKAADRVFKTQSAVSMQMRRLEERIGKPLFMKDGRGNRLTVEGDRLLNFARRMIRLNNEAIASFDDNRLEGTLRIGTPDDYADRYMPEIIVRFAKTHPNVELYIICEPSVDLAEKMAKGDLDIALVTHNPRARASDVVRTEPLCWVSSINHPLPENAPIPLAVGRRDCQWRQAACAALDATGKEYQILFTSWSSTVVAAAVLAGMAVSVLPESALRPGMKVLTLADGFPSLAPVQIGIMKRPGLSPSLSNAITNHITACLDNITPITVNDDLEGDLKGYPRYPRLRQSHMLPGW” was “not soluble”; that for “MGSDKIHHHHHHMSARIPTLDITRFDSDREAFVAELGAAYRQWGFAGIRNHGIAQSDIDAAYEVFKAFFALPDEVKRSYHVPGSGGARGYTAFGVETAKDSKHFDLKEFWHIGREIPDDSPYRAVMAPNLWPTEVPGFRERGYHLYQQLDQLGSRVLSALALHIGLPQDYFADKTDHGNSILRPIHYPPITSDDIPNVRAGAHGDINFITLLVGASAAGLEVRSNEGEWVPFTADADTIVVNIGDMLQRLTNHVYPSTIHRVVNPPGEEARKPRYSVPFFLHPNPDFLIDVLPSCISADNPSRYPEPITAHGFLEERLREIKLK” was “not soluble”; that for “MGSDKIHHHHHHMSAVTESVLESIISPVTMSEFLEEYWPVKPLVARGEVERFTSIPGFEKVRTLENVLAIYNNPVMVVGDAVIEESEGITDRFLVSPAEALEWYEKGAALEFDFTDLFIPQVRRWIEKLKAELRLPAGTSSKAIVYAAKNGGGFKAHFDAYTNLIFQIQGEKTWKLAKNENVSNPMQHYDLSEAPYYPDDLQSYWKGDPPKEDLPDAEIVNLTPGTMLYLPRGLWHSTKSDQATLALNITFGQPAWLDLMLAALRKKLISDNRFRELAVNHQSLHESSKSELNGYLESLIQTLSENAETLTPEQIFQSQDSDFDPYQSTQLVFRQLLTSYKF” was “soluble”.
For “MGSDKIHHHHHHMSDAHYDMHKRNGYSSDEPYPEIKVLGPNKYYAELLMDDYAGVSSEFTSVNQYLYHNFDLDETHRELSEMWINISITEMLHMEILAKTIRLLGGNPVYRGSTSSCGAYWNGGFVCYGNSICNRLKLDLHLEHVAINNYYKDISLIEDPYIKAILNRIILDEKLHVSLFEKAIEKYCK” the value was “not soluble”; for “MGSDKIHHHHHHMSDITSKVSLTNVAADNTVSSEQAKDINSIGQDLGIDMMASLQQAPFDEMLIREYLLDNPDFFNRYPELLVAMRVPHAERGAVSLVERRQELLRQRVSQLEEEITSLMNIATHNEKIFKFNTELSFKMLASQDLGELRLVLSEGLKNEFGFSHVRLITVHDIDSELAKIWRHRVQSGYYFGRLTQSESKRLFGSEVGSVALTKLSDENGQVIFAIASNDPTHFHPDMDSLLFSQLRRLLDHMLPKM”, “not soluble”.
